Experimental data published in patent publication US20240034786A1 (WUXI BIOLOGICS IRELAND, published 2024).

Tests used:
[1] = target: T1, Human P-cadherin on cells (human, UniProt P22223 108-829); assay: cell-based or functional assay
[2] = target: T1, Human P-cadherin on cells; assay: FACS affinity test on DU-145 cells
Method: Antibodies to be tested were serially diluted in 1×PBS/1% BSA and incubated with cells at 4° C. for 1 h. The plates were centrifuged and the supernatant was discarded. The cells were then incubated with Alexa647 conjugated goat anti-human IgG Fc (Jackson) at 4° C. in the dark for 30 min. After washing the cells were re-suspended in 100 μL 1×PBS/1% BSA, and fluorescence intensity was measured by flow cytometry (BD Canto II) and analyzed by FlowJo. The fluorescence intensity was converted to bound molecules/cell based on the quantitative beads standard curve (Quantum™ MESF Kits, Bangs Laboratories). KD was calculated by Graphpad Prism5.

[3] = target: T2, Cyno P-cadherin on W319-CHOK1.cynoPro1.FL cells (cynomolgus, UniProt A0A2K5WPN9 108-829); assay: FACS on CHOK1 cells transiently expressing cyno P-cadherin
T2 construct: whole, on cells; also called cynomolgus P-cadherin; W391-CHOK1.cynoPro1.FL (transient)
Method: Binding of the test antibodies to P-cadherin expressed on cells was determined by flow cytometry analysis. […] 1×10⁵ cells/well (100 μL) were added to each well of a 96-well U-plate (Corning, #3799) and centrifuged at 1500 rpm (Eppendorf, #5810R) for 5 minutes before removing the supernatant. Antibodies serially diluted in 1% BSA/1×PBS (Ca+/Mg+) were added at 100 μL/well to the pelleted cells and incubated at 4° C. for 1 hour. Anon-related hIgG1 antibody was used as an isotype control. Cells were washed two times with 180 μL/well of 1% BSA/1×PBS (Ca+/Mg+) by centrifugation at 1500 rpm for 5 minutes at 4° C. Pelleted cells were resuspended in 100 μL/well Alexa647 conjugated Goat anti-human IgG Fc (Jackson, #109-605-098) 1:500 diluted in 1% BSA/1×PBS (Ca+/Mg+) for 30 minutes at 4° C. in the dark. Cells were then washed two times as described above. After the final wash, cells were resuspended in 100 μL 1% BSA/1×PBS (Ca+/Mg+) and fluorescence values were measured with a FACS Canto II cytometer (BD Biosciences). The amount of cell surface bound anti-P-cadherin antibody was assessed by measuring the mean fluorescence (MFI). The FACS raw data were analyzed by FlowJo software, wells containing no antibody or secondary antibody only were used to establish background fluorescence. […]
Binding of the test antibodies to cynomolgus P-cadherin expressed on cells was determined by flow cytometry analysis. […]

T1 sequence (P22223 108-829): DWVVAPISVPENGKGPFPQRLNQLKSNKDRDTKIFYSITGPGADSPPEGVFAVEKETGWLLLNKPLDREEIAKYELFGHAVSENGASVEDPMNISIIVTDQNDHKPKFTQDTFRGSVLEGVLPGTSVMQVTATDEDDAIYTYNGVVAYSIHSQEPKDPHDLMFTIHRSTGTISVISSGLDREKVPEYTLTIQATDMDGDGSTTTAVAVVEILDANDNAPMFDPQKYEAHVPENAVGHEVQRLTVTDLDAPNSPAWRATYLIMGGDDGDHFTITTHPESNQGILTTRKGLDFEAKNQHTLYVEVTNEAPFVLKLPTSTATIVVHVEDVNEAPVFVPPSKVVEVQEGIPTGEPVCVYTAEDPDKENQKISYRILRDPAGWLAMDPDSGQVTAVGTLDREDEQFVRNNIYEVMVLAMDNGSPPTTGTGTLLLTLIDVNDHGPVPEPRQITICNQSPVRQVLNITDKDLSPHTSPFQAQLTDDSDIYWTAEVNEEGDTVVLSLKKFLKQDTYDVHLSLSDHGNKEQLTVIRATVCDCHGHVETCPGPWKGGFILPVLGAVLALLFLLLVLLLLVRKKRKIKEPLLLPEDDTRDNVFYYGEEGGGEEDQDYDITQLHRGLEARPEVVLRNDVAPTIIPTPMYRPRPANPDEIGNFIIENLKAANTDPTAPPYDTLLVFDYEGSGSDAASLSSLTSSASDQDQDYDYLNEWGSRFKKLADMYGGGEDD

internalization, HCS assay on HCC-1954, EC50 [1]: 0.029 nM | Kd [2]: 0.034 nM | EC50 [3]: 0.095 nM
B1: W3195-1.53.1-p1-uIgG1L (antibody)
heavy: not shown
light: SYELTQPPSVSVSPGQTAQITCSGDKLGDKFASWYQQKSGQSPVVVIYQDNKRPSGFPERFSGSNSGNTATLTISGTQAMDEADYYCQAWDSSIVVFGGGTKLTVLGQPKAAPSVTLFPPSSEELQANKATLVCLISDFYPGAVTVAWKADSSPVKAGVETTTPSKQSNNKYAASSYLSLTPEQWKSHRSYSCQVTHEGSTVEKTVAPTECS
notes: also called W3195-p1 antibody
